Target: T1, nbr1_human NBR1 (UniProt Q14596)
T1 sequence: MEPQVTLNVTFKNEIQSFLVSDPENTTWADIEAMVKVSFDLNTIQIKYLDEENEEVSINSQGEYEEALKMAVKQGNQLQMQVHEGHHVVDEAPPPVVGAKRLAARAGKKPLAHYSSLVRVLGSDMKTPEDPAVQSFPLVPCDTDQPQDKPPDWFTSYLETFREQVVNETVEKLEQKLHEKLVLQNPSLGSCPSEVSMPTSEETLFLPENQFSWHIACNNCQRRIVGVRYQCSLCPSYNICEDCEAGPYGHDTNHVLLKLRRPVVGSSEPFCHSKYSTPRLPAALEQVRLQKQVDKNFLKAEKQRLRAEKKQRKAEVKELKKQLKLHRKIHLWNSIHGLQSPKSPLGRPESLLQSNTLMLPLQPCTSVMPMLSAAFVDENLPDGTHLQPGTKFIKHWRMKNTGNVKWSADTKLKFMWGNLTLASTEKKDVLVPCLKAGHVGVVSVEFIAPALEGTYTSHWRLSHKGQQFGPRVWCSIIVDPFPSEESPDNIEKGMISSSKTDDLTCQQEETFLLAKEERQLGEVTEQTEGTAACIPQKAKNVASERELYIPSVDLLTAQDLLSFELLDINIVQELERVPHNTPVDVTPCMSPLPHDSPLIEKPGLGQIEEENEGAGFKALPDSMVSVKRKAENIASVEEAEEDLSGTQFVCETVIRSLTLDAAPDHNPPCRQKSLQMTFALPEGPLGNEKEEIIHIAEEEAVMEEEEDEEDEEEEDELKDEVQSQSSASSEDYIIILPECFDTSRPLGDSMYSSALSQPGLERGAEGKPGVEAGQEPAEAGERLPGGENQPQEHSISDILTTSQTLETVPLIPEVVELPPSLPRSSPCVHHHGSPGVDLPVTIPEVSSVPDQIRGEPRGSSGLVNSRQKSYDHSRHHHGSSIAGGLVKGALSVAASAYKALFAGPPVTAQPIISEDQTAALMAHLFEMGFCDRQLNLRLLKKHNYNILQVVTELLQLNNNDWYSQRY

Effect of a mutation on the interaction, decreasing interaction:
Polyubiquitin-C (Homo sapiens) (from UniProt P0CG48) K63R
Polyubiquitin-C (Homo sapiens) (from UniProt P0CG48) K48R
Polyubiquitin-C (Homo sapiens) (from UniProt P0CG48) K33R

Reference: IntAct's records for PubMed 19427866
